Results as given in paper PMC6627510, “The Role of a Key Amino Acid Position in Species-Specific Proteinaceous dUTPase Inhibition” (Biomolecules, 2019).
pKi: −log10 of the molar value.

Assays:
[1] = target: Escherichia coli dUTPase Q93H mutant (Escherichia coli); assay: crystal structure; EcDUT^Q93H with 5 mM dUPNPP; hanging drop, 0.1 M TRIS, 18-33.75 % PEG 3350, 400 mM NaAc, pH 7.5, 295 K
[2] = target: Escherichia coli dUTPase Q93H mutant (Escherichia coli); assay: steady-state enzyme inhibition; 50 nM dUTPase, 0-400 nM Stl, 5 min pre-incubation at 20 °C, 30 µM dUTP; 1 mM HEPES, 150 mM KCl, 5 mM MgCl2, 40 µM phenol red, pH 7.5; quadratic equation fitted, K is the Ki (IC50)
[3] = target: Escherichia coli dUTPase Q93R mutant (Escherichia coli); assay: as above
[4] = target: Escherichia coli dUTPase Q93H mutant (Escherichia coli)
[5] = target: Escherichia coli dUTPase Q93R mutant (Escherichia coli)

Q: For “Escherichia coli dUTPase Q93H mutant (enzyme)”, which stoichiometry N [1] is on record?
A: 3

Q: With “Stl_(SaPIbov1) protein (staphylococcal repressor) (natural protein)” as the substance, how does the pKi [2] read?
A: 8.32

Q: What about the pKi [3] of the same substance?
A: 8.23

Q: And the decrease of the steady-state velocity of dUTPase on Stl addition [4]?
A: 58%

Q: What about the decrease of the steady-state velocity of dUTPase on Stl addition [5] of the same substance?
A: 47%
